Assay results from US20230071765A1, “COMPOSITIONS HAVING THIOREDOXIN ACTIVITY AND RELATED METHODS” (ORPRO THERAPEUTICS, INC., priority 2020, published 2023).

System: 4% HBE mucus from CF donors
Assay: rheology of 4% solids CF HBE mucus (G′, G″)
Format: biochemical, human
Conditions: 1 hr at 37° C.
From the text: Mucus Preparation: Aseptic mucus was harvested from over 100 individual HBE cultures from 20 different CF donors and prepared to four weight-percent (4%) solids, a concentration that typifies chronic obstructive pulmonary disease (COPD) and mild CF (Hill, D. B. et al., 2014, A biophysical basis for mucus solids concentration as a candidate biomarker for airways disease, PloS one 9, e87681; Anderson, W. H. et al., 2015, The relationship of mucus concentration (hydration) to mucus osmotic pressure and transport in chronic bronchitis., Am J Resp Crit Care Med 192: 182-90). Rheology: HBE cell culture mucus was treated with DTT (1 mM) and several concentrations of ORP100S (0.01, 0.1, and 1.0 mM) for 1 hr at 37° C. following previously established methods (Hill, D. B., and Button, B., 2012, Establishment of respiratory air-liquid interface cultures and their use in studying mucin production, secretion, and function. In Mucins: Methods and Protocols, D. J. Thornton, ed., pp. 245-58; Youngren-Ortiz, S. et al., 2017, Development of optimized inhalable Gemcitabine-loaded gelatin nanocarriers for lung cancer, J Aerosol Med Pulm Drug Delivery 30:299-321; Seagrave, J., et al., 2012, Effects of guaifenesin, N-acetylcysteine, and ambroxol on MUC5AC and mucociliary transport in primary differentiated human tracheal-bronchial cells, Respir Res 13: 98). Concentration and time course assays were performed using a TA Instruments DHR3 rheometer to assess the bulk, macroscopic biophysical effects of test article and controls on HBE mucus properties. Briefly, the linear regime of a 1 Hz amplitude (stress) sweep was identified for each treatment condition. […] Creep recovery experiments were performed in which a known stress (between 0.05 and ˜100 Pa) was applied to treated or control mucus for 10 seconds, and the rheological recovery of the fluid was recorded for an additional 50 seconds. […] From the measured parameters the viscosity and elasticity of the fluid were determined as a function of applied stress. Frequency sweeps were performed at both constant stress and strains and used to determine the baseline physical properties of mucus and its elastic and viscous components (G′ and G″, respectively). Mucin molecular weight determination: Molecular weight reduction following test article treatment was determined using a combination of gel-permeation chromatography with multi-angle laser light scattering on a Wyatt Heleos MALLS system. MALLS is a rapid and accurate means of determining molecular size and mass of high MW biomolecules in a non-destructive manner without requiring the use of relative standards. Briefly, 4% HBE treated samples were diluted 100-fold in 0.9% NaCl with 10 mM EDTA and 0.01% sodium azide. 0.2 mL of diluted sample was eluted through a Sepharose CL2B column to separate high MW mucins from other mucus proteins, and the mucin fraction was introduced into the MALLS system. Mucin MW was determined by fitting a Berry model to light scattering from 11 different angles using Wyatt Astra software.
FIGS. 5, A and B (top): Reduction in Elastic (G′) and Viscous (G″) moduli of 4% solids dry weight mucus reduced with DTT (1 mM) and ORP100S (0.01, 0.1, and 1.0 mM concentrations) for 1 hr at 37° C. […] All data were collected by examining frequency sweeps of mucus performed in the linear regime and analyzed at 1 rad/s on a TA DHR3 rheometer.

B1: ORP100S: thioredoxin with monothiol active site, Cys35 and non-active Cys 62, 69 and 73 substituted with serine (SEQ ID NO:29) (protein)
chain: MVKQIESKTAFQEALDAAGDKLVVVDFSATWCGPSKMIKPFFHSLSEKYSNVIFLEVDVDDSQDVASESEVKSMPTFQFFKKGQKVGEFSGANKEKLEATINELV
modifications: synthetic peptide motif
reduction in elastic modulus G′ (10 μM): significant reduction in G′ was not apparent | reduction in viscous modulus G″ (10 μM): ~2 fold | reduction in viscous modulus G″ (100 μM): reduced by a similar amount as observed with 10 μM | elastic modulus G′ (100 μM, baseline value 0.28 Pa): 0.19 Pa | reduction in G′, factor (1 mM): ~3 | reduction in G″, factor (1 mM): ~3
